Source: US20210060174

Molecular target: human fibrinogen (UniProt P02671)

Substance	fibrin gel formation by primed hMSCs (confocal microscopy, Alexa-594-tagged fibrinogen)	fibrin formation, absorbance at 600 nm
[cThrombin][S]	[cThrombin][S] bound to cell membranes was able to cleave fibrinogen to form a fibrin gel	
cationised thrombin		During cationisation, the activity of thrombin was retained up to 120 minutes of cationisation, although the activity was gradually decreased with increased cationisation duration
